Test results from article PMC12143593.
Each block holds one substance with its values, some of them ahead of it.

Legend:
[1] = molecular target: EcSSB W136D W136D (Escherichia coli) (UniProt P0AGE0); assay: fluorescence polarization; details: n = 2; 20 mM Tris-acetate pH 8, 50 mM K-glutamate, 10 mM Mg-acetate, 25 C; 10 nM labeled oligo, SSB concentrations as tetramers
[2] = molecular target: EcSSB WT (Escherichia coli) (UniProt P0AGE0); assay: fluorescence polarization; details: n = 1.9 tetramer per oligo; 20 mM Tris-acetate pH 8, 50 mM K-glutamate, 10 mM Mg-acetate, 25 C; 10 nM labeled oligo, SSB concentrations as tetramers
[3] = molecular target: EcSSB d1G internal_change (Escherichia coli) (UniProt P0AGE0); assay: fluorescence polarization; details: n = 1.9 to 2.3 range; here 2.3; 20 mM Tris-acetate pH 8, 50 mM K-glutamate, 10 mM Mg-acetate, 25 C; 10 nM labeled oligo, SSB concentrations as tetramers
[4] = molecular target: EHE chimera (EcSSB with hSSB1 IDL) (Escherichia coli / human (IDL)) (UniProt P0AGE0); assay: fluorescence polarization; details: 20 mM Tris-acetate pH 8, 50 mM K-glutamate, 10 mM Mg-acetate, 25 C, 10 nM labeled oligo, SSB concentrations as tetramers
[5] = molecular target: EcSSB R116D-W136D R116D;W136D (Escherichia coli) (UniProt P0AGE0); assay: fluorescence polarization; details: n = 2; 20 mM Tris-acetate pH 8, 50 mM K-glutamate, 10 mM Mg-acetate, 25 C; 10 nM labeled oligo, SSB concentrations as tetramers
[6] = molecular target: EPE chimera (EcSSB with PfSSB IDL) (Escherichia coli / Plasmodium falciparum (IDL)) (UniProt P0AGE0); assay: fluorescence polarization; details: 20 mM Tris-acetate pH 8, 50 mM K-glutamate, 10 mM Mg-acetate, 25 C; 10 nM labeled oligo, SSB concentrations as tetramers
[7] = molecular target: EcSSB d2G internal_change (Escherichia coli) (UniProt P0AGE0); assay: fluorescence polarization; details: n = 2.8; 20 mM Tris-acetate pH 8, 50 mM K-glutamate, 10 mM Mg-acetate, 25 C; 10 nM labeled oligo, SSB concentrations as tetramers
[8] = molecular target: EcSSB dC (construct lacking the CTP, aa 1-170) (Escherichia coli) (UniProt P0AGE0); assay: fluorescence polarisation; competitive: dC (2.5 uM tetramer) complexed with 25 nM flCTP, titrated with EcSSB constructs (tetramer concentrations); 25°C; 20 mM Tris–acetate pH 8, 50 mM K-glutamate, 10 mM Mg-acetate; competitive binding scheme
[9] = molecular target: RecQ helicase (UniProt P15043); assay: fluorescence polarisation; competitive: RecQ–flCTP mixture (0.65 uM RecQ, 25 nM flCTP) titrated with EcSSB constructs (tetramer concentrations); 25°C; 20 mM Tris–acetate pH 8, 50 mM K-glutamate, 10 mM Mg-acetate; competitive binding scheme
Sequence of RecQ helicase (P15043 whole entry): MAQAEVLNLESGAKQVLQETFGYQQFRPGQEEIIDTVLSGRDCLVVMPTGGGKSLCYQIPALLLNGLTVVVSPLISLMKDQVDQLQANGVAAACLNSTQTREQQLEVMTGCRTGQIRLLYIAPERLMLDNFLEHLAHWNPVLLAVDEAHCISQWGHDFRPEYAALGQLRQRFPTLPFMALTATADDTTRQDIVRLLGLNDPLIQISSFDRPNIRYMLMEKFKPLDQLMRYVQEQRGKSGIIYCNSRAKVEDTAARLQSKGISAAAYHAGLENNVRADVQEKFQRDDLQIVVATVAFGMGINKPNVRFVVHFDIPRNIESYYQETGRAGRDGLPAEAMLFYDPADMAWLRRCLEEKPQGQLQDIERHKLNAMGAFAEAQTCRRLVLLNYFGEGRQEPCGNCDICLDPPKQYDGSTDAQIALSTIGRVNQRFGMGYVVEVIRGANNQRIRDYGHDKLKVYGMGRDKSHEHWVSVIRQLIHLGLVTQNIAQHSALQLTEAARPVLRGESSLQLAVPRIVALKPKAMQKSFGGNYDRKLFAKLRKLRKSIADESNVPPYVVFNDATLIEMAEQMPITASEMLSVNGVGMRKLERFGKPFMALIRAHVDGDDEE

Substance: ssDNA36
- Kd [1]: 16 nM
- Kd [2]: 32 nM
- Kd [3]: 89 nM
- Kd ([4]; n = 2.1): 96 nM
- Kd [5]: 21 nM
- Kd [6]: 84 nM
- Kd [7]: 46 nM

- Kd [8]: 97 nM
Substance: EcSSB GG construct (entire IDL except the CTP eliminated) (from UniProt P0AGE0 1-113) (natural protein)

Substance: TTTTTTTTTTTTTTTTTTTTTTTTTTTTTTTTTTTTTTTTTTTTTTTTTTTTTTTTTTTTTTTTTTTTTTTTTTTTTTT [dT79]
- Kd ([4]; n = 2.3): < 10 nM
- Kd [6]: < 10 nM

Substance: EPE chimeric construct (EcSSB OB domain, IDL of Plasmodium falciparum SSB, EcSSB CTP) (from UniProt P0AGE0;Q8I415)
- Kd [8]: 57 nM
- Kd [9]: < 10 nM
